T1: mouse IgG2a Fc-tagged human PVRIG (h-PVRIG-mIgG2a Fc) recombinant protein (human, UniProt Q6DKI7 41-171, limits assumed)
T1 construct: bought from Acrobiosystems; not shown: mouse IgG2a Fc tag
T1 sequence (looked up): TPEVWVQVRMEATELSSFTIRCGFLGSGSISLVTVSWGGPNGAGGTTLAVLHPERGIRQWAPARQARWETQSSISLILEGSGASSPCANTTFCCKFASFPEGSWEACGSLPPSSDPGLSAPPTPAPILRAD

T2: his-tagged human PVRIG (h-PVRIG-his) recombinant protein (human, UniProt Q6DKI7 41-171, limits assumed)
T2 construct: bought from Acrobiosystems; also called Human PVRIG-his; human PVRIG recombinant protein; not shown: his tag
T2 sequence (looked up): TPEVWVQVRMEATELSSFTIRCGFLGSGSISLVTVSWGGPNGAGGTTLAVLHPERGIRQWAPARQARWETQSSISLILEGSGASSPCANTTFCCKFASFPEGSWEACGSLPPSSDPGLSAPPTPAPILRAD

T3: human PVRIG expressed on cells (human, UniProt Q6DKI7 41-326)
T3 sequence (looked up): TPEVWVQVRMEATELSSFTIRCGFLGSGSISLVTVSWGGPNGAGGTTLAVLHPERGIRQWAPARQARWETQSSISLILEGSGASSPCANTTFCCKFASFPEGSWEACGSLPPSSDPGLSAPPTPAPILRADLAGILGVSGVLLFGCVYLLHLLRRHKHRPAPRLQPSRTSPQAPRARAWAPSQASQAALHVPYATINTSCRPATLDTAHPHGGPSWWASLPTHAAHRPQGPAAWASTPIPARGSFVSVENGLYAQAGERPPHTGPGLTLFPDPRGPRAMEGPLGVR

T4: human TIGIT expressed on cells (human, UniProt Q495A1 22-244)
T4 construct: whole, on cells; also called cells overexpressing human TIGIT
T4 sequence (looked up): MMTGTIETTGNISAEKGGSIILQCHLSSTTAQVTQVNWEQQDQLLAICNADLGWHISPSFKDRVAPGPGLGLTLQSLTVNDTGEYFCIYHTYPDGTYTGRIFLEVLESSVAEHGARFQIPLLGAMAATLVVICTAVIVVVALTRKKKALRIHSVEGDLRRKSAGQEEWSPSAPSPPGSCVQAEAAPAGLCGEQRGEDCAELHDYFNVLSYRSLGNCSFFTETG


Key:
[1] = target: T1, mouse IgG2a Fc-tagged human PVRIG …; experiment: competition ELISA; coated h-PVRIG-mIgG2a Fc, competitor his-PVRL2
Description: In this experiment, by in vitro blocking experiment, the ability of the selected anti-PVRIG antibodies to block the binding of human PVRIG to its ligand human PVRL2 was detected. Specifically, a mouse IgG2a Fc-tagged human PVRIG recombinant protein (h-PVRIG-mIgG2a Fc) was coated on a 96-well microplate, an anti-PVRIG antibody was added to fully bind to and occupy an epitope, then his-tagged PVRL2 (PV2-H52E2, AcroBiosystem) was added, and the binding amount of PVRIG and PVRL2 was calculated by detecting the his tag. The IC₅₀ value of the anti-PVRIG antibody for blocking the PVRIG active site was calculated.
The h-PVRIG-mIgG2a Fc protein (at a concentration of 1 μg/mL) was coated on the 96-well microplate at 100 μL per well, and incubated overnight at 4° C. The plate was washed three times with wash buffer at 250 μL per well. For each wash, the plate was shaken for 10 s to ensure adequate cleaning. A blocking solution was added at 300 μL/well, and the plate was incubated at room temperature for 1 h. The plate was washed three times with wash buffer at 250 μL per well. For each wash, the plate was shaken for 10 s to ensure adequate cleaning. 50 μL of diluted test anti-PVRIG antibody and 50 μL of his-tagged ligand PVRL2 were added to each well, and the plate was incubated at 37° C. for 1 h. The plate was washed three times with wash buffer at 250 μL per well. The HRP-labeled anti-his-tagged secondary antibody (Genscrpit) diluted at 1:2000 was added at 100 μL per well. The plate was incubated at 37° C. for 1 h. The plate was washed three times with wash buffer at 250 μL per well. TMB was added at 100 μL/well, and the plate was incubated in the dark for 15 min. 0.16 M sulfuric acid was added at 50 μL/well. OD values at 450 nm were measured using a Thermo MμtLtiSkanFc microplate reader, and the IC₅₀ values of the anti-PVRIG antibodies blocking the binding of PVRIG to PVRL2 were calculated.

[2] = target: T2, his-tagged human PVRIG (h-PVRIG-his) …; experiment: BLI (Fortebio), antibody on Protein A sensor, 1:1 fit
Description: A Protein A biosensor (Fortebio, #18-5010) was immersed in 200 μL of KB buffer (PBS, pH 7.4, 0.02% tween-20, 0.1% BSA) for 60 s for the wetting treatment. Then, the anti-PVRIG antibody was diluted to 10 μg/mL with the KB buffer, and the sensor was immersed in 200 μL of the solution until the reading was 1.2 nm. The sensor was immersed in the KB buffer for 100 s to elute excess antibody. The his-tagged human PVRIG was diluted in a 2-fold gradient to 64 nM-4 nM with the KB buffer. The sensor was immersed in the solution for 300 s for binding. The sensor was immersed in the KB buffer for 600 s for dissociation. The data were fitted in a dynamic 1:1 binding mode.

[3] = target: T3, human PVRIG expressed on cells; experiment: cell-based or functional assay
[4] = target: T4, human TIGIT expressed on cells; experiment: FACS, cells overexpressing target
Description: (§1) The expression plasmid carrying human or cynomolgus monkey PVRIG gene sequence was transfected into HEK293 cells, and the over-expressing stable transfection monoclonal cell strain was obtained by antibiotic screening and infinite dilution. Overexpressing cells were seeded into a 96-well plate at 2×10⁵ cells/per well. The cells were centrifuged at 300 g for 5 min, the supernatant was then removed, 100 μL of the test antibody was added, and the mixture was incubated at 4° C. for 1 h. The mixture was centrifuged, the supernatant was removed, the plate was washed 3 times with 200 μL of wash buffer (PBS+2% FBS), and then 100 μL of an anti-human IgG secondary antibody (Invitrogen, A-11013) labeled with Alexa Fluor 488 diluted at 1:500 was added. The mixture was incubated at 4° C. for 1 h. The plate was centrifuged, and the supernatant was removed. The plate was washed 3 times with 200 μL of wash buffer (PBS+2% FBS). The cells were resuspended in 100 μL of PBS and tested on a flow cytometer (BD FACS Calibur or BD FACS Canto_II).
(§2) Similarly to Examples 4, 5 and 6, the binding of humanized anti-PVRIG/TIGIT bispecific antibodies to human and cynomolgus monkey TIGIT and blocking of binding of human TIGIT to ligand were detected, where PVRIG protein was replaced with TIGIT and PVRL2 was replaced with PVR.

[5] = target: T5, cynomolgus monkey TIGIT expressed on cells (cynomolgus monkey, UniProt A0A7N9I9V4 89-312); experiment: FACS, cells overexpressing target
T5 construct: whole, on cells; also called cells overexpressing cynomolgus monkey TIGIT
Description: as §1, §2

T5 sequence (A0A7N9I9V4 entry or part of it): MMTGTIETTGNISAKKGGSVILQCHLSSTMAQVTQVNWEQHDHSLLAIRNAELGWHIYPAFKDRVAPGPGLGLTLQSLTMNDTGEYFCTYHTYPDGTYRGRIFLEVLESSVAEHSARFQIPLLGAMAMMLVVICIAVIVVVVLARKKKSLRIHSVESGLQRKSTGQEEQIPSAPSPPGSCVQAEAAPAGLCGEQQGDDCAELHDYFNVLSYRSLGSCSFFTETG

Row | Binder | IC50 [1] [nM] | Kd [2] [nM] | koff [2] [s⁻¹] | kon [2] [M⁻¹ s⁻¹] | MLR IFNγ (pg/mL), 4 nM antibody [3] [pg/mL] | MLR IFNγ (pg/mL), 20 nM antibody [3] [pg/mL] | MLR IFNγ (pg/mL), 100 nM antibody [3] [pg/mL] | EC50 [4] [nM] | EC50 [5] [nM] | binding result [4] | binding result [5]
1 | anti-PVRIG antibody 151 (antibody, human IgG4 S228P, F234A L235A, V domains shown, no light chain) VH: HVQLVESGGGSVQAGGSLRLSCVASASGFTYRPYCMAWFRQAPGKEREAVAGIDIFGGTTYADSVKGRFTASRDNAGFSLFLQMNDLKPEDTAMYYCAAGDSPDGRCPPLGQGLNYWGQGTQVTVSS | 0.37 | 0.2 | 5.22e-05 | 261000 | 1500 | 2220 | 1800 | – | – | – | –
2 | anti-PVRIG antibody 38 (antibody, human IgG4 S228P, F234A L235A, V domains shown, no light chain) VH: QVQLVESGGGSVQAGGSLRLSCAASPSTYGPSDMAWFRQAPGKQREGVATISAAGRLTYYTDSVRGRFTISRDNAKNTMYLQMNSLKPEDTAMYYCAADFAGGSSLFADYKYWGQGTQVTVSS | 0.93 | 2.17 | 0.000287 | 132000 | 1390 | 2020 | 2130 | – | – | – | –
3 | humanized anti-PVRIG/TIGIT bispecific antibody 1708-20H5 (bispecific antibody, human IgG4 S228P, kappa) heavy: not shown light: DIQMTQSPSSLSASVGDRVTITCRASENIYSYLAWYQQKPGKSPKLLIYNARTLAEGVPSRFSGSGSGTDFTLTISSLQPEDFATYYCQYHSGSPLPFGGGTKVEIKRTVAAPSVFIFPPSDEQLKSGTASVVCLLNNFYPREAKVQWKVDNALQSGNSQESVTEQDSKDSTYSLSSTLTLSKADYEKHKVYACEVTHQGLSSPVTKSFNRGEC | – | – | – | – | – | – | – | 0.01 | 0.009 | – | –
4 | humanized anti-PVRIG/TIGIT bispecific antibody 1708-30H2 (bispecific antibody, human IgG4 S228P, kappa) heavy: not shown light: DIQMTQSPSSLSASVGDRVTITCRASENIYSYLAWYQQKPGKSPKLLIYNARTLAEGVPSRFSGSGSGTDFTLTISSLQPEDFATYYCQYHSGSPLPFGGGTKVEIKRTVAAPSVFIFPPSDEQLKSGTASVVCLLNNFYPREAKVQWKVDNALQSGNSQESVTEQDSKDSTYSLSSTLTLSKADYEKHKVYACEVTHQGLSSPVTKSFNRGEC | – | – | – | – | – | – | – | 0.01 | 0.009 | – | –
5 | anti-PVRIG antibody 39 (antibody, human IgG4 S228P, F234A L235A, V domains shown, no light chain) VH: QVQLVESGGGSVQAGGSLRLSCAASRYTSRTDCMGWFRQAPGKEREGVAHIDSDGIPRYVESVKGRFTISQDHAKNTLYLQMNSLKPEDSATYYCVVGFKFGDYCAPNDWGQGTQVTVSS | 0.76 | 0.696 | 0.000169 | 242000 | – | – | – | – | – | – | –
6 | anti-PVRIG antibody 30 (antibody, human IgG4 S228P, F234A L235A, V domains shown, no light chain) VH: HVQLVESGGGSVQAGGSLRLSCEASGYSYSGDCMGWFRRAPGKERDEGVATIDNAGRIKYADSVKGRFTISHGNGKYILYLQMNSLKPEDTDMYYCAAGWTFGGNCSPADWGQGTQVTVSS | 1.11 | 0.723 | 0.000205 | 284000 | 1680 | 1910 | 1580 | – | – | – | –
7 | positive antibody Tab5 (antibody, human IgG4 S228P, kappa, F234A L235A, V domains shown, Variable regions of CPA.7.021 (WO2016134333A1) on human IgG4 (S228P/F234A/L235A/K447A) and human kappa constant regions) VH: EVQLVESGGGVVKPGGSLRLSCAASGFTFGTSSMNWVRQAPGKGLEWVAVISFDGTEIHYADSVKGRFTISRDNSKSTVFLQMNSLRPDDTALYYCAKGSGNIYFYSGMDVWGQGTTVTVSS VL: DIQMTQSPSTLSASVGDRVTITCRAGQSISGWLAWFQQKPGKAPNLLIYETSTLESGVPSRFSGSGSGTEYTLTISSLQPDDFATYYCQQYYSYPLTFGQGTKVEIKR | 1.16 | 0.219 | – | – | 912 | 1420 | 2350 | – | – | no binding | no binding
